Experimental data reported in publication PMC8630535.

Columns and labels:
Conditions in all cases: […]) or PBS pH 8.0, 1 mM TCEP ([…]
[1] = system: T1, PaaR2 (Escherichia coli O157:H7 EDL933 (CP-933P cryptic prophage)), ORF:dc76e4f2; test: EMSA
T1 sequence: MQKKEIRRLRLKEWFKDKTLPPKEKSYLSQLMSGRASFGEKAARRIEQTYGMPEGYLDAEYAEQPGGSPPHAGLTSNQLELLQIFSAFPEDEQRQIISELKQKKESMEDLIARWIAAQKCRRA

[2] = system: T2, YdaS (Escherichia coli O157:H7 EDL933 (CP-933P cryptic prophage)), ORF:56fdd3d8; test: EMSA
T2 sequence: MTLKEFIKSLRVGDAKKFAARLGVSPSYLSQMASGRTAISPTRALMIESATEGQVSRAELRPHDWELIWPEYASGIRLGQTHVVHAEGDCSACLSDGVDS

[3] = system: T1, PaaR2 (Escherichia coli O157:H7 EDL933 (CP-933P cryptic prophage)), ORF:dc76e4f2; test: DNase I footprinting
[4] = system: T2, YdaS (Escherichia coli O157:H7 EDL933 (CP-933P cryptic prophage)), ORF:56fdd3d8; test: DNase I footprinting
[5] = system: YdaS (Escherichia coli O157:H7 EDL933 (CP-933P cryptic prophage)); test: EMSA
[6] = system: PaaR2 (Escherichia coli O157:H7 EDL933 (CP-933P cryptic prophage)); test: EMSA

For “ACCTTCCTCGGTTTAGTGTTTTTTTGCGAGTTTAGTGTTTAATAAACCATTAAGTCAAGTATTTGCTTGTTTAGTGATTACTAAAGATAATTACCAC (double strand)”, the binding [1] was greater than 1 µM and the binding [2] was greater than 1 µM.

With “GCTTTTGCGCAGAAATTTCGCGATATGGCAGGACAAGACGTAAAATTGACAGCAATTTTATTCATATAAAGAATGAATCGCAGTCAAGGTATTCATC (double strand) [random intergenic region (Neg)]” the binding [1] was “no binding” and the binding [2] was “no binding”.

In the case of “TCTTTAAACCACTCCTTGAGACGTAAACGGCGAATTTCTTTTTTTTGCATGTGGTAATTATCTTTAGTAATCACTAAACAAGCAAATACTTGACTTAATGGTTTATTAAACACTAAACTCGCAAAAAAACACTAAACCGAGGAAGGTATGACATTAAAAGAGTTTATTAAATCATTAAGGGTTGGTGAT (double strand) [footprint fragment, paaR2-ydaS promoter/operator region]”, the binding [3] is reported as “binds” and the binding [4] is reported as “binds”.

Substance “full-length promoter/operator region, paaR2-ydaS intergenic region (EMSA)” has a binding [5] greater than 1 µM and a binding [6] greater than 1 µM.
